Experimental data: article doi:10.1101/067827 (bioRxiv, 2016)

Target: the molecule itself
Experiment: SEC

B1: MCAK-His6 (purified full-length MCAK) (enzyme, UniProt Q99661 1-725, looked up)
chain: MAMDSSLQARLFPGLAIKIQRSNGLIHSANVRTVNLEKSCVSVEWAEGGATKGKEIDFDDVAAINPELLQLLPLHPKDNLPLQENVTIQKQKRRSVNSKIPAPKESLRSRSTRMSTVSELRITAQENDMEVELPAAANSRKQFSVPPAPTRPSCPAVAEIPLRMVSEEMEEQVHSIRGSSSANPVNSVRRKSCLVKEVEKMKNKREEKKAQNSEMRMKRAQEYDSSFPNWEFARMIKEFRATLECHPLTMTDPIEEHRICVCVRKRPLNKQELAKKEIDVISIPSKCLLLVHEPKLKVDLTKYLENQAFCFDFAFDETASNEVVYRFTARPLVQTIFEGGKATCFAYGQTGSGKTHTMGGDLSGKAQNASKGIYAMASRDVFLLKNQPCYRKLGLEVYVTFFEIYNGKLFDLLNKKAKLRVLEDGKQQVQVVGLQEHLVNSADDVIKMIDMGSACRTSGQTFANSNSSRSHACFQIILRAKGRMHGKFSLVDLAGNERGADTSSADRQTRMEGAEINKSLLALKECIRALGQNKAHTPFRESKLTQVLRDSFIGENSRTCMIATISPGISSCEYTLNTLRYADRVKELSPHSGPSGEQLIQMETEEMEACSNGALIPGNLSKEEEELSSQMSSFNEAMTQIRELEEKAMEELKEIIQQGPDWLELSEMTEQPDYDLETFVNKAESALAQQAKHFSALRDVIKALRLAMQLEEQASRQISSKKRPQ
Question: With B1 as the protein, how does the “stoichiometry N” value read?
Answer: Its value is 2.
